Experiment [1] has as its target His-tagged human recombinant corneodesmosin (His-CDSN) (human) (UniProt Q15517). The experiment is described as follows: SPR. Background: Surface plasmon resonance follows binding to a sensor surface in real time, without labels.
The target of experiment [2] is T1, His-tagged human recombinant corneodesmosin (His-CDSN) (human, UniProt Q15517 33-529).
T1 sequence (looked up): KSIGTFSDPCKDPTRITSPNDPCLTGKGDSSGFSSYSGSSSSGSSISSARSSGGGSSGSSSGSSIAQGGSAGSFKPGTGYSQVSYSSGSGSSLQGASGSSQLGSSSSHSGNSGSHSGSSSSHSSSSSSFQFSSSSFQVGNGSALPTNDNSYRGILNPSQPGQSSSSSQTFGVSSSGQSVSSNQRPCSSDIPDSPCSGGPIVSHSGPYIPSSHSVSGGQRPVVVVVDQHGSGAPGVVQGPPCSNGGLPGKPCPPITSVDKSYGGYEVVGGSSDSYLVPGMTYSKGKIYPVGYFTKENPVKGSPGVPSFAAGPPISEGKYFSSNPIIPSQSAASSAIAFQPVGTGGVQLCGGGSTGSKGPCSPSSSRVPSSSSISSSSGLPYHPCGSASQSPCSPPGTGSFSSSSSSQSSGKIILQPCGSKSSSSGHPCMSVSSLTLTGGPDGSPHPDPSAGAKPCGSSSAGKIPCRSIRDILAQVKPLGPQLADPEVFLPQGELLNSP
The experiment can be described thus: SPR.

Kd data for 2 molecules are collected here from article PMC7817190 (Proceedings of the National Academy of Sciences of the …, 2020).

For the molecule “recombinant FnBPB N2N3 subdomains with the sequence of the AD08 protein (rFnBPBCC1N2N3) (domain or fragment)”, in experiment [1], the Kd (in general, the equilibrium constant for the complex coming apart) came to 49.1 µM.

B1: recombinant ClfB N2N3 subdomains with the sequence of the AD08 protein (rClfBCC1N2N3) (domain or fragment)
chain: AEPVVNAADAKGTNVNDKVTAKDFQLEKTTFDPNQSGNTFMAANFTVTGQVKSGDYFTAKLPDSVTGNGDVDYSNSNNTMPIADIVNDKNEVVAKATYDILTKTYTFVFTDYVNDKQNINGKFSLPLFTDRAKAPKSGTYDANINIADEMFNNKITYNYSSPIAGIDKPNGANISSQIIGVDTASGQNTYKQTVFVNPKQRVLGNTWVYIKGYQDKIEESSGKVSATDTKLRIFEVNDTSKLSDSYYADPNDSNLKEVTDQFKDKITYKYQNVASINFGDINKTYVVLVEGHYDKTGKNLKTQVIQENVDPATGKDYSIFGWNNENVVRYGGGSADGDSAVN
As for B1, the Kd in experiment [2] was 44.6 µM.
